The values that follow come from patent publication US20250326839A1 (VIGIL NEUROSCIENCE, published 2025).

T1: human TREM2 (human, UniProt Q9NZC2 19-174, limits assumed)
T1 construct: also called triggering receptor expressed on myeloid cells 2
T1 sequence: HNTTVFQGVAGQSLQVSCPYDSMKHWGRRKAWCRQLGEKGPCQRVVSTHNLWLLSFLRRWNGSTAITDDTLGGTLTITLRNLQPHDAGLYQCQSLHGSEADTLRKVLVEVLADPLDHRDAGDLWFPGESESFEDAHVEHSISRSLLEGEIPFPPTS

B1: V64 (antibody, V domains shown)
VH: EVQLVQSGAEVKKPGESLKISCKGSGYSFQSYWIAWVRQMPGKGLEWMGIIYPGDSDTRYSPSFQGQVTISADKSISTAYLQWSSLKASDTAMYFCARGRTFYYDSSDYFDYWGQGTLVTVSS
VL: DIQMTQSPSSVSASVGDRVTITCRASQGISSWLAWYQQKPGKAPKLLIYAASSLANGVPSRFSGSGSGTDFTLTISSLQPEDFATYFCQQADSYPRTFGQGTKLEIK
notes: also called 6E7 variant V64
B2: V74 (antibody, V domains shown)
VH: B1 VH with Q30A, T58V
VL: B1 VL with A55Q, N56L, Y94F
notes: also called 6E7 variant V74
B3: V84 (antibody, V domains shown)
VH: B1 VH with S28G, Q30T, G99Q, F110S
VL: B1 VL with A50G, A55Q, Y94F
notes: also called 6E7 variant V84
B4: V77 (antibody, V domains shown)
VH: B1 VH with Q30T, G99Q
VL: B1 VL with L54R, A55Q, Y94F
notes: also called 6E7 variant V77
B5: V73 (antibody, V domains shown)
VH: B1 VH with Q30G, S63G
VL: B1 VL with L54R, A55Q
notes: also called 6E7 variant V73; LV-106/HV-109
B6: V65 (antibody, V domains shown)
VH: B1 VH with Q30T, G99S
VL: B1 VL with A55Q, Y94F
notes: also called 6E7 variant V65
B7: V88 (antibody, V domains shown)
VH: B1 VH with Q30G, G99Q
VL: B1 VL with S53R, A55Q, N56R, Y94S
notes: also called 6E7 variant V88
B8: V72 (antibody, V domains shown)
VH: B1 VH with Q30T, A35G
VL: B1 VL with A55V
notes: also called 6E7 variant V72
B9: V87 (antibody, V domains shown)
VH: B1 VH with Q30R, T58V, S63D, G99S
VL: B1 VL with A55Q, N56W, Y94F
notes: also called 6E7 variant V87
B10: V86 (antibody, V domains shown)
VH: B1 VH with Q30G, I34L, Q65E, G99S
VL: B1 VL with L54R, A55Q, Y94F
notes: also called 6E7 variant V86
B11: V75 (antibody, V domains shown)
VH: B1 VH with Q30T
VL: B1 VL with A55Q, N56A
notes: also called 6E7 variant V75
B12: V85 (antibody, V domains shown)
VH: B1 VH with Q30R, I50T, G99S
VL: B1 VL with L54R, A55Q, Y94F
notes: also called 6E7 variant V85
B13: V76 (antibody, V domains shown)
VH: B1 VH with Q30G, S63E, G99Q, F110S
VL: B1 VL with A55Q, N56K, T69R, Y94F
notes: also called 6E7 variant V76; LV-109/HV-110
B14: V89 (antibody, V domains shown)
VH: B1 VH with Q30T, G99Q
VL: B1 VL with A55Q, Y94H
notes: also called 6E7 variant V89

Residue numbers refer to the chain shown, from its start.

For the first test, the target named is T1, human TREM2. In words: 2nd screen, 2 nM.
Regarding B1, the “Binding Signal” value was 4.88 fold over 6E7 parental antibody.
In the case of B2, the “Binding Signal” value was 2.54 fold over 6E7 parental antibody.
The same measure, in the same setting: for B3 the value was 1.45 fold over 6E7 parental antibody; for B4, 0.83 fold over 6E7 parental antibody.
Take B5: the “Binding Signal” value is 4.17 fold over 6E7 parental antibody.
Regarding B6, the “Binding Signal” value was 1.29 fold over 6E7 parental antibody.
Regarding B7, the “Binding Signal” value is 5.57 fold over 6E7 parental antibody.
With B8, the “Binding Signal” value is 2.5 fold over 6E7 parental antibody.
For B9, the “Binding Signal” value was 4.86 fold over 6E7 parental antibody.
In the case of B10, the “Binding Signal” value was 5.17 fold over 6E7 parental antibody.
B11: the “Binding Signal” value is 3.74 fold over 6E7 parental antibody.
Take B12: the “Binding Signal” value is 5.41 fold over 6E7 parental antibody.
In the case of B13, the “Binding Signal” value was 4.34 fold over 6E7 parental antibody.
In the case of B14, the “Binding Signal” value was 0.94 fold over 6E7 parental antibody.

The target of another test is T1, human TREM2. The experiment in a line: 1st screen, 10 nM Ab.
For B1, the “Binding Signal” value was 5.41 fold over 6E7 parental antibody.
On to B2, for which the “Binding Signal” value was 3.94 fold over 6E7 parental antibody.
On to B3, for which the “Binding Signal” value was 1.44 fold over 6E7 parental antibody.
For B4, the “Binding Signal” value was 1.43 fold over 6E7 parental antibody.
For the molecule B5, the “Binding Signal” value was 5.12 fold over 6E7 parental antibody.
With B6, the “Binding Signal” value is 2.05 fold over 6E7 parental antibody.
B7: the “Binding Signal” value is 4.92 fold over 6E7 parental antibody.
On to B8, for which the “Binding Signal” value is 3.64 fold over 6E7 parental antibody.
Consider B9, for which the “Binding Signal” value was 3.84 fold over 6E7 parental antibody.
On the same count and under the same terms, for B10 the value was 4.8 fold over 6E7 parental antibody; for B11, 4.64 fold over 6E7 parental antibody.
B12: the “Binding Signal” value was 5.41 fold over 6E7 parental antibody.
On the same count and under the same terms, for B13 the value was 4.57 fold over 6E7 parental antibody.
Consider B14, for which the “Binding Signal” value was 1.33 fold over 6E7 parental antibody.

A further test deals with T1, human TREM2. In words: 2nd screen, 10 nM.
On to B1, for which the “Binding Signal” value was 5.48 fold over 6E7 parental antibody.
Turning to B2, the “Binding Signal” value is 4.01 fold over 6E7 parental antibody.
The same measure, in the same setting: for B3 the value was 1.62 fold over 6E7 parental antibody; for B4, 1.38 fold over 6E7 parental antibody.
For B5, the “Binding Signal” value was 5.44 fold over 6E7 parental antibody.
Still for that read-out and setting: for B6 the value was 2.75 fold over 6E7 parental antibody; for B7, 5.3 fold over 6E7 parental antibody.
With B8, the “Binding Signal” value is 4.01 fold over 6E7 parental antibody.
On the same count and under the same terms, for B9 the value was 3.93 fold over 6E7 parental antibody; for B10, 5.02 fold over 6E7 parental antibody; for B11, 4.52 fold over 6E7 parental antibody.
Take B12: the “Binding Signal” value was 5.37 fold over 6E7 parental antibody.
With B13, the “Binding Signal” value is 4.93 fold over 6E7 parental antibody.
Turning to B14, the “Binding Signal” value was 1.46 fold over 6E7 parental antibody.
